Measured values published in PMC11025796.

Assays:
[1] = biological target: HrGH45, endogenous glycosylated GH45 endo-1,4-β-D-glucanase from the red abalone (Haliotis rufescens) (Haliotis rufescens); assay: zymography (SDS-PAGE without reducing agent or heating, in-gel cellulase activity); 12% SDS-PAGE gel with 0.1% (w/v) CMC in the resolving phase, sample not reduced and not heated; Triton X-100 wash, overnight at 37°C in buffer A, Congo red stain; a second gel stained with Coomassie
[2] = biological target: HrGH45, endogenous glycosylated GH45 endo-1,4-β-D-glucanase from the red abalone (Haliotis rufescens) (Haliotis rufescens); assay: SEC; calibrated gel filtration on an Agilent Bio SEC-3 HPLC column; 0.1 mg/mL HrGH45 in buffer A (50 mM sodium acetate pH 6.0, 200 mM NaCl, 1 mM EDTA, 0.05% NaN3), 1 mL/min; mass in solution compared with the MALDI-TOF mass of the monomer

stoichiometry N [1]: 3
stoichiometry N [2]: 3
Substance: HrGH45, endogenous glycosylated GH45 endo-1,4-β-D-glucanase from the red abalone (Haliotis rufescens) (enzyme)
